Residue numbers refer to the chain shown, from its start. “And” between values parts separate entries of the source, which are not always exact repeats. Equal entries are not always repeated. Where two headings read alike, the source gives them in different places.

Test [1] deals with human CLDN18.2 (hCLDN18.2), expressed on cells (human). As to the kind of experiment: cell-based or functional assay.
The target in test [2] is T1, human CLDN18.2 (hCLDN18.2), expressed on cells (human).
T1 construct: the constructs in the cell lines are not described; also called Claudin18.2; HEK293-hCLDN18.2
As to the kind of experiment: FACS, SNU620 cells over-expressing hCLDN18.2. (In general: In flow cytometry, cells or beads pass a laser one at a time.)

Test [3] has as its target T1, human CLDN18.2 (hCLDN18.2), expressed …. Briefly: cell-based or functional assay. This is another data set of the same source.
For test [4] the target is unchanged. Briefly: FACS, HEK293/hCLDN18.2 cells.
The target is the same in test [5]. As to the kind of experiment: FACS, SNU620 cells (endogenous CLDN18.2).
For test [6] the target is unchanged. Briefly: FACS, MFC cells over-expressing hCLDN18.2; MFC cells; first panel, run beside the hu22E12 H1 and H2 variants.
The target is the same in test [7]. As to the kind of experiment: cell-based or functional assay. This is another data set of the same source.
Test [8] shares this target. Briefly: FACS, MFC cells over-expressing hCLDN18.2; MFC cells; second panel, run beside the hu22E12 H3 and H4 variants.
Test [9] has the same target. As to the kind of experiment: FACS, HEK293/hCLDN18.2 cells; FACS, HEK293/hCLDN18.2 cells (stable over-expression).
For test [10] the target is unchanged. Briefly: FACS, SNU620 cells (endogenous CLDN18.2); FACS, SNU620 cells (native CLDN18.2).

B1: ch35B4 (antibody, V domains shown)
VH: EAKLVESGGDFMQPGGSLKLSCAASGFTLSSYALSWVRQTPEKRLEWVAYISNLGGSTFYPDTVKGRFTISRDNARNTLFLQMSSLQSEDTAIYYCATHLYNYDAFASWGQGTLVTVSA
VL: QIVLSQSPAILSASPGEKVTMTCRASSSVNYIHWYQQKPGSSPKAWIYATSNLASGVPTRFSGSGSGTSYSLTIDRVEAEDAATYYCQQWNSNPLTFGAGTKLELK
In general, EC50 refers to the concentration at which the effect is half-maximal. Low values mean higher potency in that assay, high ones lower potency in that assay. For the molecule B1, the “ADCC EC50 (nM), NK-CD16a effector cells” value in test [1] came to 0.0803 nM. Further, in test [2], the EC50 is 0.419 nM and 0.442 nM. Moreover, in test [3], the “PBMC VS NUGC4 ADCC (EC50 nM)” value was 4.05 nM.

B2: 35B4 (antibody, V domains shown)
VH: B1 VH
VL: B1 VL
notes: mouse hybridoma antibody, purified; also called clone 35B4
For B2, the 50% effective concentration (EC50) in test [4] is 0.85 nM; in test [5], 3.8 nM.

B3: 33G12 (antibody, V domains shown)
VH: EVKLVESGGGLVQPGGSLKLSCAASGFTFSRYAMSWVRQTPEKRLEWVAYISIGGTTYYPDTIKGRFTISRDNAKNTLYLQMSSLKSEDTAMYYCTRHYYGHDVMDYWGQGTSVTVSS
VL: B1 VL with A9T, S26T, N30S, I32M, Y35F, A45P, T59A, D75S, N91S, S92R
notes: mouse hybridoma antibody, purified; also called clone 33G12
Consider B3, for which the EC50 came to 0.56 nM in test [4] and 1.1 nM in test [5].

B4: IMAB362 (Zolbetuximab) (antibody, human IgG1, kappa, V domains shown)
VH: QVQLQQPGAELVRPGASVKLSCKASGYTFTSYWINWVKQRPGQGLEWIGNIYPSDSYTNYNQKFKDKATLTVDKSSSTAYMQLSSPTSEDSAVYYCTRSWRGNSFDYWGQGTTLTVSS
VL: DIVMTQSPSSLTVTAGEKVTMSCKSSQSLLNSGNQKNYLTWYQQKPGQPPKLLIYWASTRESGVPDRFTGSGSGTDFTLTISSVQAEDLAVYYCQNDYSYPFTFGSGTKLEIKR
As to B4, the EC50 in [6] was 23.5 nM; in [8], 42.7 nM; in [9], 0.71 nM. The “PBMC VS NUGC4 ADCC (EC50 nM)” value in [3] worked out at 25.1 nM. The “ADCC EC50 (nM), NK-CD16a effector cells” value in test [7] came to 0.228 nM.

B5: 99H8 (antibody, V domains shown)
VH: QVQLQQSGPELVKPGASVKLSCKASGYSFTNFDINWVKQRPGQGLQWIGRLYPRDGTTTYNEKFKGKASLTVDTSSTTSYMDLHSLTSEDSAVYFCVRGNYGNSFAYWGQGTLVTVSA
VL: DIVMTQSPSSLTVTAREKVIMNCKSSQSLFNSGNQKNYLTWYQQKPGQSPKLLIYWASTRQSGVPDRFTGSGSGTDFTLTISTVQAEDLAVYFCQNGFSFPYTFGGGTKLEMN
notes: mouse hybridoma antibody, purified; also called clone 99H8
With B5, the EC50 in [4] was 1.1 nM; in test [5], 19 nM.

B6: 97A9 (antibody, V domains shown)
VH: QVQLQQSGPELVKPGASMKLSCKASGYSFTRNDINWVKQRPGQGLEWIGLSYPRDGTTQYNGKFKGKATLTVDTSSSTAYMELRSLTSEDSAVYFCARGYYGNSFAYWGQGTLVTVSA
VL: DIVMTQSPSSLTVTAGEKVTMSCKSSQSLLNSGNQKNYLTWYQQKPGQPPKLLIYWASTRESGVPDRFTGSGSGTYFTLTISSVQAEDLAVYFCQNDYYFPYTFGGGTKLEIK
notes: mouse hybridoma antibody, purified; also called clone 97A9
With B6, the EC50 in test [4] is 1.6 nM; in [5], 3.3 nM.

B7: 60F11 (antibody, V domains shown)
VH: QVQLQQPGAELVKPGASVKLSCKASGYTFTSYWMHWVKQRPGQGLEWIGMIHPNSGSTNYNEKFKSKATLTVDKSSSTAYMQLSSLTSEDSAVYYCARMGLGNAMDYWGQGTSVTVSS
VL: B6 VL with M21L, K36R, Y76D, F93Y, D97A, Y99S, F100Y, Y102L, G106A, I112L
notes: mouse hybridoma antibody, purified; also called clone 60F11
Turning to B7, the EC50 turned out to be 0.81 nM in [9] and 3.5 nM in test [10].

B8: 22E12 (antibody, V domains shown)
VH: QVQLQQPGTELVKTGTSVKLSCKASGYTFTNWVHWVIQRPGQGLEWIGEINPTNGRSNYNEKFKKKATLTLDRSSTTAYMQLSSLTSEDSAVYFCAGIYYGNSFAHWGQGTLVTVSA
VL: B6 VL with M21L, A57S, Y76D, F93H, D97N, F100Y, Y102L, G106A, I112L
notes: mouse hybridoma antibody, purified; also called clone 22E12
As to B8, the EC50 in test [4] was 0.86 nM; in [5], 2.1 nM.

B9: hu35B4.H1L2-VLPLL (antibody, human IgG1)
heavy: EVQLLESGGGLVQPGGSLRLSCAASGFTLSSYALSWVRQAPGKGLEWVSYISNLGGSTFYPDTVKGRFTISRDNSKNTLYLQMNSLRAEDTAVYYCAKHLYNYDAFASWGQGTLVTVSSASTKGPSVFPLAPSSKSTSGGTAALGCLVKDYFPEPVTVSWNSGALTSGVHTFPAVLQSSGLYSLSSVVTVPSSSLGTQTYICNVNHKPSNTKVDKKVEPKSCDKTHTCPPCPAPELVGGPSVFLLPPKPKDTLMISRTPEVTCVVVDVSHEDPEVKFNWYVDGVEVHNAKTKPPEEQYNSTLRVVSVLTVLHQDWLNGKEYKCKVSNKALPAPIEKTISKAKGQPREPQVYTLPPSREEMTKNQVSLTCLVKGFYPSDIAVEWESNGQPENNYKTTPLVLDSDGSFFLYSKLTVDKSRWQQGNVFSCSVMHEALHNHYTQKSLSLSPGK
VL: DIQLTQSPSFLSASVGDRVTITCRASSSVNYIHWYQQKPGKAPKALIYATSNLASGVPSRFSGSGSGTEYTLTISSLQPEDFATYYCQQWNSNPLTFGQGTKLEIK
Turning to B9, the “ADCC EC50 (nM), NK-CD16a effector cells” value in [1] came to 9.43e-05 nM.

B10: hu35B4.H1L2 (antibody, V domains shown)
VH: EVQLLESGGGLVQPGGSLRLSCAASGFTLSSYALSWVRQAPGKGLEWVSYISNLGGSTFYPDTVKGRFTISRDNSKNTLYLQMNSLRAEDTAVYYCAKHLYNYDAFASWGQGTLVTVSS
VL: B9 VL
notes: humanized 35B4
In the case of B10, the “ADCC EC50 (nM), NK-CD16a effector cells” value in test [1] is 0.02 nM. For the same molecule, in [2], the EC50 was determined as 0.253 nM.

The record behind these values is patent US20240270839A1 (ELPISCIENCE SUZHOU BIOPHARMA, published 2024).
